{
  "source": "paper PMC9068512",
  "molecular_target": "modified calcium-permeable rat GluA2flip subunit with Q586 at the Q/R site (GluA2*), as the GluA2 portion of the GluA2–γ2 fusion (rat) (UniProt P19491)",
  "experiment": "cryo-EM structure; purified GluA2–γ2 fusion in 150 mM NaCl, 20 mM Tris-HCl pH 8.0, 0.05% digitonin, supplemented with 20 µM Glu and 100 µM CTZ; seven LBD–TMD reconstructions (NNNN, GNNN, GNGN1, GNGN2, GGNN, GGGN, GGGG)",
  "data": [
    {"substance": "modified calcium-permeable rat GluA2flip subunit with Q586 at the Q/R site (GluA2*), as the GluA2 portion of the GluA2–γ2 fusion (from UniProt P19491-2 22-883) (receptor)", "values": [
      {"measurement": "stoichiometry N", "result": 4}
    ]}
  ]
}
